According to patent US20200317768A1 (published 2020):
Residue numbers refer to the chain shown, from its start.

T1: cynomolgus monkey FcγRIIa2 extracellular domain, C-terminal His-tag (cynomolgus monkey)
T1 construct: also called cyno FcγRIIa2; cynoFcgRIIa2
T1 chain: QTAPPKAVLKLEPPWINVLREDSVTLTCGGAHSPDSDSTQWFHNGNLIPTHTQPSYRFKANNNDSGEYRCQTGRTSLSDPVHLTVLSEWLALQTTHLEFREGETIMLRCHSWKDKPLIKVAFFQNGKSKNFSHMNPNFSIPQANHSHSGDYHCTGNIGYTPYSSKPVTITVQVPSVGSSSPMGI

T2: human FcγRIIaR extracellular domain, C-terminal His-tag (human, UniProt P12318 34-217)
T2 construct: also called human FcγRIIa (type R); FcgRIIaR
T2 chain: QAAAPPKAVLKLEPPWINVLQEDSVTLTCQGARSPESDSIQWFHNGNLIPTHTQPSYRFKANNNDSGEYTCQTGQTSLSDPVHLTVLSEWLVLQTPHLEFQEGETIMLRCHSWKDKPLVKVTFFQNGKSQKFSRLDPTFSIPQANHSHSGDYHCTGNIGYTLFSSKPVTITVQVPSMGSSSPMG

T3: human FcγRIIb extracellular domain, C-terminal His-tag (human, UniProt P31994 43-217)
T3 construct: also called human FcgRIIb; FcgRIIb
T3 sequence: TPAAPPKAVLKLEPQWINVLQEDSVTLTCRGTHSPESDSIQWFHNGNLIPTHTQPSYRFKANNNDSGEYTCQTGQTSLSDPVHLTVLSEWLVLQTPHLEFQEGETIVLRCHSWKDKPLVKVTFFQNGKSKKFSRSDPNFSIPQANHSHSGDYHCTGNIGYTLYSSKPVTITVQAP

T4: cynomolgus monkey FcγRIIb extracellular domain, C-terminal His-tag (cynomolgus monkey)
T4 construct: also called cyno FcγRIIb; cynoFcγRIIb
T4 chain: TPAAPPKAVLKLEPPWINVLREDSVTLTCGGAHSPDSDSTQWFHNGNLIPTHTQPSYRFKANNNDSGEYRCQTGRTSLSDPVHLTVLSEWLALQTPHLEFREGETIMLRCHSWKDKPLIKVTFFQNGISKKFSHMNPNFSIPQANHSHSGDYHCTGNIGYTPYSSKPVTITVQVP

T5: cynomolgus monkey FcγRIIa3 extracellular domain, C-terminal His-tag (cynomolgus monkey)
T5 construct: also called cyno FcγRIIa3; cynoFcgRIIa3
T5 chain: T1 chain with K127I, N130K, H133P, Q142R

T6: cynomolgus monkey FcγRIIIaS extracellular domain, C-terminal His-tag (cynomolgus monkey, UniProt Q8SPW2 21-206 at identity 1.00))
T6 construct: also called cyno FcγRIIIaS; cynoFcγRIIIaS
T6 chain: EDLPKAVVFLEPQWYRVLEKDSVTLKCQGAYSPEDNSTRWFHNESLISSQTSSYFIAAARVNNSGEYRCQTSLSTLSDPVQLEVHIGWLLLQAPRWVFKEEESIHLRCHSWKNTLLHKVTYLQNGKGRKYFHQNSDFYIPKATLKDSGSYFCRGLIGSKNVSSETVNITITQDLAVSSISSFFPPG

T7: human FcγRIIaH extracellular domain, C-terminal His-tag (human, UniProt P12318 34-217)
T7 construct: also called human FcγRIIa (type H); FcgRIIaH
T7 sequence: T2 chain with R134H

B1: MS_M103205H795-SG1/M103202L889-SK1 (antibody, human IgG1, kappa)
heavy: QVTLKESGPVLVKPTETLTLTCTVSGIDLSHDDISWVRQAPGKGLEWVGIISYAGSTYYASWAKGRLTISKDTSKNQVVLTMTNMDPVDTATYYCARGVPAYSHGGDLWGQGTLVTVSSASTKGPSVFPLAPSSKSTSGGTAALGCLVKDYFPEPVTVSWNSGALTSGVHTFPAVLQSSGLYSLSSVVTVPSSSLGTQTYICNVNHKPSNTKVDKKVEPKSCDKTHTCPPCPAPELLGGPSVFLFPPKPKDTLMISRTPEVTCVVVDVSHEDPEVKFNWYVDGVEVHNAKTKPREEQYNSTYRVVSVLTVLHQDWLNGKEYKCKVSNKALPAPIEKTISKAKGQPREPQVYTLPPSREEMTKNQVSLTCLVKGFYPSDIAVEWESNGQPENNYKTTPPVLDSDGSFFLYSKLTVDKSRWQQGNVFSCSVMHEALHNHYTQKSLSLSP
light: DIVMTQSPATLSLSPGERATLSCTSSQSVYHANWLSWFQQKPGQPPKLLIYWASTLAYGVPSRFSGSGSGTDFTLTISSLQPEDAATYYCAGGYGGGRYAFGQGTKVEIKRTVAAPSVFIFPPSDEQLKSGTASVVCLLNNFYPREAKVQWKVDNALQSGNSQESVTEQDSKDSTYSLSSTLTLSKADYEKHKVYACEVTHQGLSSPVTKSFNRGEC
notes: Parent of the Fc variants; also called MS1032LO06-SG1
B2: M103205H795-MY001/M103202L889-SK1 (antibody, human IgG1, kappa)
heavy: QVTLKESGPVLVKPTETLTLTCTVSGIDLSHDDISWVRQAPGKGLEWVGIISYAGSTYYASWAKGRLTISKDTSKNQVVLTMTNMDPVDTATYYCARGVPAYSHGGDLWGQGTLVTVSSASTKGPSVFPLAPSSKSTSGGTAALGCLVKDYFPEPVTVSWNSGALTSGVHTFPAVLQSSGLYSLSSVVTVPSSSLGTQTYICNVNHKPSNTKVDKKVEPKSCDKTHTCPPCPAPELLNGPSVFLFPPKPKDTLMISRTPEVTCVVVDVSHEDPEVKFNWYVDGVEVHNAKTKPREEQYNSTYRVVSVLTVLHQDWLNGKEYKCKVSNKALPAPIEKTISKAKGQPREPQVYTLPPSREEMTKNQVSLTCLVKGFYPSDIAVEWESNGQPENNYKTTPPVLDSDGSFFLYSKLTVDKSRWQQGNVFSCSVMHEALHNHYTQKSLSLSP
light: B1 light
notes: Substitutions introduced into M103205H795-SG1; expressed with M103202L889-SK1 as light chain
B3: M103205H795-MY141/M103202L889-SK1 (antibody, human IgG1, kappa)
heavy: QVTLKESGPVLVKPTETLTLTCTVSGIDLSHDDISWVRQAPGKGLEWVGIISYAGSTYYASWAKGRLTISKDTSKNQVVLTMTNMDPVDTATYYCARGVPAYSHGGDLWGQGTLVTVSSASTKGPSVFPLAPSSKSTSGGTAALGCLVKDYFPEPVTVSWNSGALTSGVHTFPAVLQSSGLYSLSSVVTVPSSSLGTQTYICNVNHKPSNTKVDKKVEPKSCDKTHTCPPCPAPELLNGPSVFLFPPKPKDTLMISRTPEVTCVVVDVAHEDPEVKFNWYVDGVEVHNAKTKPREEQYNSTYRVVSVLTVLHQDWLNGKEYKCKVSNKALPAPIEKTISKAKGQPREPQVYTLPPSREEMTKNQVSLTCLVKGFYPSDIAVEWESNGQPENNYKTTPMVLDSDGSFFLYSKLTVDKSRWQQGNVFSCSVMHEALHNHYTQKSLSLSP
light: B1 light
notes: as for B2
B4: M103205H795-MY051/M103202L889-SK1 (antibody, human IgG1, kappa)
heavy: B3 heavy with A269S, H270E, P273G, M398P
light: B1 light
notes: as for B2
B5: M103205H795-MY101/M103202L889-SK1 (antibody, human IgG1, kappa)
heavy: B3 heavy with A269S, H270E, A332K
light: B1 light
notes: also called MS1032LO06-MY101
B6: M103205H795-MY050/M103202L889-SK1 (antibody, human IgG1, kappa)
heavy: B3 heavy with H270E, M398P
light: B1 light
notes: as for B2
B7: M103205H795-MY047/M103202L889-SK1 (antibody, human IgG1, kappa)
heavy: not shown
light: B1 light
notes: as for B2
B8: M103205H795-MY048/M103202L889-SK1 (antibody, human IgG1, kappa)
heavy: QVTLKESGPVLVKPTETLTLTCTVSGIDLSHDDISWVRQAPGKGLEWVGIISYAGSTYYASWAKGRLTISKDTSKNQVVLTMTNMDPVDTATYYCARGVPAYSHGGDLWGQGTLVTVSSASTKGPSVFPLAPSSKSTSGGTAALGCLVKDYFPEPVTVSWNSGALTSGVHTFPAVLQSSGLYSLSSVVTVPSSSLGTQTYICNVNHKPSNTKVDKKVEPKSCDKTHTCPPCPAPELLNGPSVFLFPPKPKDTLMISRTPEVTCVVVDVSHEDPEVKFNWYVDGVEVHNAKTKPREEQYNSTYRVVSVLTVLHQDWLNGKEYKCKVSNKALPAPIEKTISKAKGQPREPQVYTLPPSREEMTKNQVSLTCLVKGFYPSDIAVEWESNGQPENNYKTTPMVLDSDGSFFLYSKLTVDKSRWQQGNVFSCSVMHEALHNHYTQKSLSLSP
light: B1 light
notes: as for B2
B9: M103205H795-MY147/M103202L889-SK1 (antibody, human IgG1, kappa)
heavy: B3 heavy with L237W, A269S, H270E
light: B1 light
notes: as for B2
B10: M103205H795-MY049/M103202L889-SK1 (antibody, human IgG1, kappa)
heavy: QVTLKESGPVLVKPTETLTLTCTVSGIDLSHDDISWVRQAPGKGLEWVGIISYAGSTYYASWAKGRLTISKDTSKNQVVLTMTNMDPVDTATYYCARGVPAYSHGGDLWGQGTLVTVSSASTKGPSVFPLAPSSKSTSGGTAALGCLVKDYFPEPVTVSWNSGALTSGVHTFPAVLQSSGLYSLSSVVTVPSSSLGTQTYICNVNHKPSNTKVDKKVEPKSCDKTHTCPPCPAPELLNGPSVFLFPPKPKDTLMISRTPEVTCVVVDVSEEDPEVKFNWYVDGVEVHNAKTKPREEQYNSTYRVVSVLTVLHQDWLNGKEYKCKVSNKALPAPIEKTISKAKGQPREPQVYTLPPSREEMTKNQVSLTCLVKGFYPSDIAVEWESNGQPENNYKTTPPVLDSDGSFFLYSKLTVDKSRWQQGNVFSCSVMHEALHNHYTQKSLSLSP
light: B1 light
notes: as for B2
B11: M103205H795-MY105/M103202L889-SK1 (antibody, human IgG1, kappa)
heavy: B3 heavy with S241V, A269S, H270E
light: B1 light
notes: as for B2
B12: M103205H795-MY115/M103202L889-SK1 (antibody, human IgG1, kappa)
heavy: B3 heavy with H270E
light: B1 light
notes: as for B2
B13: M103205H795-MY117/M103202L889-SK1 (antibody, human IgG1, kappa)
heavy: B3 heavy with L236W, H270E
light: B1 light
notes: as for B2
B14: M103205H795-MY052/M103202L889-SK1 (antibody, human IgG1, kappa)
heavy: B3 heavy with A269S, H270E
light: B1 light
notes: as for B2

Molecular target: T1, cynomolgus monkey FcγRIIa2 …
Assay: SPR (Biacore), antibody captured, FcgR analyte

Row | Kd | Binder
1 | 5100 nM | B1
2 | 3600 nM | B2
3 | 2800 nM | B3
4 | 4800 nM | B4
5 | 1200 nM | B5
6 | 4200 nM | B6
7 | 3400 nM | B7
8 | 1700 nM | B8
9 | 2200 nM | B9
10 | 2300 nM | B10
11 | 900 nM | B11
12 | 2700 nM | B12
13 | 3200 nM | B13
14 | 1500 nM | B14

Molecular target: T2, human FcγRIIaR extracellular domain, …
Assay: SPR (Biacore), antibody captured, FcgR analyte

Row | Kd | Binder
15 | 1100 nM | B1
16 | 8200 nM | B2
17 | 1600 nM | B3
18 | 2800 nM | B4
19 | 870 nM | B5
20 | 1500 nM | B6
21 | 88 nM | B7
22 | 3100 nM | B8
23 | 1100 nM | B9
24 | 78000 nM | B10
25 | 1400 nM | B11
26 | 640 nM | B12
27 | 10000 nM | B13
28 | 14000 nM | B14

Molecular target: T3, human FcγRIIb extracellular domain, …
Assay: SPR (Biacore), antibody captured, FcgR analyte

Row | Kd | Binder
29 | 4600 nM | B1
30 | 7700 nM | B2
31 | 1100 nM | B3
32 | 2000 nM | B4
33 | 490 nM | B5
34 | 750 nM | B6
35 | 3700 nM | B7
36 | 3300 nM | B8
37 | 850 nM | B9
38 | 1500 nM | B10
39 | 570 nM | B11
40 | 820 nM | B12
41 | 600 nM | B13
42 | 720 nM | B14

Molecular target: T4, cynomolgus monkey FcγRIIb extracellular …
Assay: SPR (Biacore), antibody captured, FcgR analyte

Row | Kd | Binder
43 | 1800 nM | B1
44 | 1800 nM | B2
45 | 1800 nM | B3
46 | 1900 nM | B4
47 | 550 nM | B5
48 | 1400 nM | B6
49 | 2600 nM | B7
50 | 910 nM | B8
51 | 960 nM | B9
52 | 850 nM | B10
53 | 390 nM | B11
54 | 780 nM | B12
55 | 1000 nM | B13
56 | 460 nM | B14

Molecular target: T5, cynomolgus monkey FcγRIIa3 …
Assay: SPR (Biacore), antibody captured, FcgR analyte

Row | Kd | Binder
57 | 17000 nM | B1
58 | 15000 nM | B2
59 | 20000 nM | B3
60 | 18000 nM | B4
61 | 36000 nM | B5
62 | 19000 nM | B6
63 | 24000 nM | B7
64 | 70000 nM | B8
65 | 6600 nM | B9
66 | 6600 nM | B10
67 | 13000 nM | B11
68 | 76000 nM | B12
69 | 9900 nM | B13
70 | 3900 nM | B14

Molecular target: T6, cynomolgus monkey FcγRIIIaS …
Assay: SPR (Biacore), antibody captured, FcgR analyte

Row | Kd | Binder
71 | 360 nM | B1
72 | 1200 nM | B2
73 | 47000 nM | B3
74 | 2100 nM | B4
75 | 32000 nM | B5
76 | 1700 nM | B6
77 | 7800 nM | B7
78 | 54 nM | B8
79 | 5500 nM | B9
80 | 4600 nM | B10
81 | 13000 nM | B11
82 | 850 nM | B12
83 | 1000 nM | B13
84 | 1500 nM | B14

Molecular target: T7, human FcγRIIaH extracellular domain, …
Assay: SPR (Biacore), antibody captured, FcgR analyte

Row | Kd | Binder
85 | 690 nM | B1
86 | 32 nM | B2
87 | 12000 nM | B3
88 | 22000 nM | B4
89 | 480 nM | B5
90 | 2100 nM | B6
91 | 2800 nM | B7
92 | 1100 nM | B8
93 | 1200 nM | B9
94 | 1800 nM | B10
95 | 15000 nM | B11
96 | 960 nM | B12
97 | 2200 nM | B13
98 | 630 nM | B14

Molecular target: T8, human FcγRIIIaV extracellular domain, C-terminal His-tag (human, UniProt P08637 17-208)
T8 construct: also called human FcgRIIIaV; FcgRIIIaV
Assay: SPR (Biacore), antibody captured, FcgR analyte

T8 sequence (P08637 17-208 F176V): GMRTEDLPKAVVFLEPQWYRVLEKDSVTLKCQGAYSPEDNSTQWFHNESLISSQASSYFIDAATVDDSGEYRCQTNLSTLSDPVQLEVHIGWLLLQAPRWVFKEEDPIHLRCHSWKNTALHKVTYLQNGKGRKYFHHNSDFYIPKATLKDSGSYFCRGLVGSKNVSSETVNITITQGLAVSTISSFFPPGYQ

Row | Kd | Binder
99 | 810 nM | B1
100 | 18000 nM | B2
101 | 12000 nM | B3
102 | 74000 nM | B4
103 | 11000 nM | B5
104 | 3300 nM | B6
105 | 7700 nM | B7
106 | 12000 nM | B8
107 | 11000 nM | B9
108 | 7800 nM | B10
109 | 5900 nM | B11
110 | 8600 nM | B12
111 | 7300 nM | B13
112 | 4600 nM | B14

Molecular target: T1, cynomolgus monkey FcγRIIa2 …
Assay: SPR (Biacore); KD of SG1 / KD of variant;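 further: relative to parent M103205H795-SG1 carrying the SG1 human heavy chain constant region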

Row | KD fold (SG1 = 1) | Binder
113 | 1 fold | B1
114 | 1.4 fold | B2
115 | 1.8 fold | B3
116 | 1.1 fold | B4
117 | 4.3 fold | B5
118 | 1.2 fold | B6
119 | 1.5 fold | B7
120 | 3 fold | B8
121 | 2.3 fold | B9
122 | 2.2 fold | B10
123 | 5.7 fold | B11
124 | 1.9 fold | B12
125 | 1.6 fold | B13
126 | 3.4 fold | B14

Molecular target: T8, human FcγRIIIaV extracellular domain, …
Assay: SPR (Biacore); KD of SG1 / KD of variant;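 further: relative to parent M103205H795-SG1 carrying the SG1 human heavy chain constant region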

Row | KD fold (SG1 = 1) | Binder
127 | 1 fold | B1
128 | 0.04 fold | B2
129 | 0.07 fold | B3
130 | 0.11 fold | B4
131 | 0.07 fold | B5
132 | 0.25 fold | B6
133 | 0.07 fold | B8
134 | 0.07 fold | B9
135 | 0.1 fold | B10
136 | 0.14 fold | B11
137 | 0.22 fold | B12
138 | 0.1 fold | B13
139 | 0.18 fold | B14
